# Measured values taken from US6482933 (Takeda / Millennium, dated 2002).
# T1: CARD-4L epitope tagged with HA (pCI-CARD-4LcHA) (human, UniProt Q9Y239 1-953)
# T1 construct: Expressed in 293T cells from pCI; in cell lysate
# T1 sequence: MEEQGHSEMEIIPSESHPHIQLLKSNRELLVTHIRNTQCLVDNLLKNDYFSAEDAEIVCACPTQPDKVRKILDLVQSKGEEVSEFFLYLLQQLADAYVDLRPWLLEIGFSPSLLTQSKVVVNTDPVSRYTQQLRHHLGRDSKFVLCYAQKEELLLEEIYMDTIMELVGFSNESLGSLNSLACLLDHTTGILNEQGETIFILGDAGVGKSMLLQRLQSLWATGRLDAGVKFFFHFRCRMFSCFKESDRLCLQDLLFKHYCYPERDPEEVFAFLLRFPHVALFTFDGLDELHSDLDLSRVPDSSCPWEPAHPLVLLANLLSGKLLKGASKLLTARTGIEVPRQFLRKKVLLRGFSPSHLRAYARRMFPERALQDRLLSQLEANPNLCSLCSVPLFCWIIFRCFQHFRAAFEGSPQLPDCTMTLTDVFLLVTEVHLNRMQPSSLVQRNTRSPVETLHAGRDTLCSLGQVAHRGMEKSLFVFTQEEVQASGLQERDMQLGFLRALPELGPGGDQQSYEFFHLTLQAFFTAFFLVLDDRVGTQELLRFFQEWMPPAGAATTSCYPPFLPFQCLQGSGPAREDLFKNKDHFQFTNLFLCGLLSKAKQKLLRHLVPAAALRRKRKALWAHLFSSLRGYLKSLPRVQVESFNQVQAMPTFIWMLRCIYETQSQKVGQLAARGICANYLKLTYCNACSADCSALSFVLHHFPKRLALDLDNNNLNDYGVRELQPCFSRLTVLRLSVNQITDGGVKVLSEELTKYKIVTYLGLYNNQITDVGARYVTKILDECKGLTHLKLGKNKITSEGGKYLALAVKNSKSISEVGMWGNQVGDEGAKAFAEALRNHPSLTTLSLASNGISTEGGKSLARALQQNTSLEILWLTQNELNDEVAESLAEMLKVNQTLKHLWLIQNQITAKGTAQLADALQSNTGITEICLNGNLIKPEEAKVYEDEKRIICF
# B1: CARD-3 lacking the CARD domain (SEQ ID NO:6) epitope tagged with MYC (pCI-CARD3noCARDnMYC) (other, not shown: small tags and cut ends)
# chain: MNGEAICSALPTIPYHKLADLRYLSRGASGTVSSARHADWRVQVAVKHLHIHTPLLDSERKDVLREAEILHKARFSYILPILGICNEPEFLGIVTEYMPNGSLNELLHRKTEYPDVAWPLRFRILHEIALGVNYLHNMTPPLLHHDLKTQNILLDNEFHVKIADFGLSKWRMMSLSQSRSSKSAPEGGTIIYMPPENYEPGQKSRASIKHDIYSYAVITWEVLSRKQPFEDVTNPLQIMYSVSQGHRPVINEESLPYDIPHRARMISLIESGWAQNPDERPSFLKCLIELEPVLRTFEEITFLEAVIQLKKTKLQSVSSAIHLCDKKKMELSLNIPVNHGPQEESCGSSQLHENSGSPETSRSLPAPQDNDFLSRKAQDCYFMKLHHCPGNHSWDSTISGSQRAAFCDHKTIPCSSAIINPLSTAGNSERL
# notes: also called CARD-3 lacking its CARD domain
# Molecular target: T1, CARD-4L epitope tagged with HA …
# Test: coimmunoprecipitation from cotransfected 293T cells (anti-MYC IP, anti-HA Western blot)
binder,measurement,value
B1,binding result,no binding
